Experimental data taken from US20240287172A1 (SCIRHOM, published 2024).
Residue numbers refer to the chain shown, from its start.

T1: hiR2-FL-D535-T7 (deletion of D535) (human, UniProt Q6PJF5 1-856)
T1 construct: single amino acid deletion
T1 sequence: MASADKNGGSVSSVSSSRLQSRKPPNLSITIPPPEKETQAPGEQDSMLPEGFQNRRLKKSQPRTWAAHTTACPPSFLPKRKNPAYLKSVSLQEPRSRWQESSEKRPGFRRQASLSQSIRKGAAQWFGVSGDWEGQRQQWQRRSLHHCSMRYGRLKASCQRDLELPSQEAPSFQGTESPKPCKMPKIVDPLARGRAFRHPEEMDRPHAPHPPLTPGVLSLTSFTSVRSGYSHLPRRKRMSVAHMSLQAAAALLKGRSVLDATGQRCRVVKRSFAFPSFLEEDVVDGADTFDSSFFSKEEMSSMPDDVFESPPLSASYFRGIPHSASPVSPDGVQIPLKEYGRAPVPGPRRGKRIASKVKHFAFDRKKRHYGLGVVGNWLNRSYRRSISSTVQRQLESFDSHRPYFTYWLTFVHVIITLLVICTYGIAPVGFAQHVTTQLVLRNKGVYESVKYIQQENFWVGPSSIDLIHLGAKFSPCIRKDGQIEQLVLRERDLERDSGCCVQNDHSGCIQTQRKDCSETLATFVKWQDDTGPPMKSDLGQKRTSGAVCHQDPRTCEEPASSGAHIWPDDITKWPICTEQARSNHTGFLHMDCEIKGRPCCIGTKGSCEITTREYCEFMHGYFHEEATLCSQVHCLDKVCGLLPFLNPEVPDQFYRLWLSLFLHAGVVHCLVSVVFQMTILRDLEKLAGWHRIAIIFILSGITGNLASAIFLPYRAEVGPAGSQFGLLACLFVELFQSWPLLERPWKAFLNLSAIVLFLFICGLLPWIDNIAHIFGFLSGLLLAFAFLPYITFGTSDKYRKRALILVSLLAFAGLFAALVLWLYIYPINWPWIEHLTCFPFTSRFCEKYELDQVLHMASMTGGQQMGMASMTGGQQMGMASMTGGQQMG

T2: hiR1-FL-WT-T7 (human, UniProt Q96CC6 1-855)
T2 construct: on MEF-DKO cells
T2 sequence: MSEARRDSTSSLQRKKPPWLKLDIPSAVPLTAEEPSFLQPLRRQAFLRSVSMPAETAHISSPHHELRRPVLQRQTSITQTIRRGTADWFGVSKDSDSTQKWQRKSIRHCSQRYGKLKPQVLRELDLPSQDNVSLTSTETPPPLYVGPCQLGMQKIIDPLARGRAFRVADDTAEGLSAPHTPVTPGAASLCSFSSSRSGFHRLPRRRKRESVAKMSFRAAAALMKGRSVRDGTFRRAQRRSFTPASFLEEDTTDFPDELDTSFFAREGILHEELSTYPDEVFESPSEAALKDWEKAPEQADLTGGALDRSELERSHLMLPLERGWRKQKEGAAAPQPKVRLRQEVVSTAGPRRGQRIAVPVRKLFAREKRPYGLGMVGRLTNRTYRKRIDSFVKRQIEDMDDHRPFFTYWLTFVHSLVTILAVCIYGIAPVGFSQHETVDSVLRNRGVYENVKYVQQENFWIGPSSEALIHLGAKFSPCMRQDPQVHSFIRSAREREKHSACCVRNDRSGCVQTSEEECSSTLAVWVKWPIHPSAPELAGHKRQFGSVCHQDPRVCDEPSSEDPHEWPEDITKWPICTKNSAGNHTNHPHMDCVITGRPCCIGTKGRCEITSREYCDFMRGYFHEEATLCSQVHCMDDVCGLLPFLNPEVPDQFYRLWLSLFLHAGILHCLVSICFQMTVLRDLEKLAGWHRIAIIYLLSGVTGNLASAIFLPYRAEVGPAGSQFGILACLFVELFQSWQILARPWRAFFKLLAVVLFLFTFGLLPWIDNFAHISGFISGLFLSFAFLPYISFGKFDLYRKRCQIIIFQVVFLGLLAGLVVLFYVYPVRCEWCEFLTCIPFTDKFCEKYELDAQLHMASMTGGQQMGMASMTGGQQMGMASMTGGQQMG

T3: hiR2-FL-L539A-T7 (human, UniProt Q6PJF5 1-856)
T3 construct: on MEF-DKO cells
T3 sequence: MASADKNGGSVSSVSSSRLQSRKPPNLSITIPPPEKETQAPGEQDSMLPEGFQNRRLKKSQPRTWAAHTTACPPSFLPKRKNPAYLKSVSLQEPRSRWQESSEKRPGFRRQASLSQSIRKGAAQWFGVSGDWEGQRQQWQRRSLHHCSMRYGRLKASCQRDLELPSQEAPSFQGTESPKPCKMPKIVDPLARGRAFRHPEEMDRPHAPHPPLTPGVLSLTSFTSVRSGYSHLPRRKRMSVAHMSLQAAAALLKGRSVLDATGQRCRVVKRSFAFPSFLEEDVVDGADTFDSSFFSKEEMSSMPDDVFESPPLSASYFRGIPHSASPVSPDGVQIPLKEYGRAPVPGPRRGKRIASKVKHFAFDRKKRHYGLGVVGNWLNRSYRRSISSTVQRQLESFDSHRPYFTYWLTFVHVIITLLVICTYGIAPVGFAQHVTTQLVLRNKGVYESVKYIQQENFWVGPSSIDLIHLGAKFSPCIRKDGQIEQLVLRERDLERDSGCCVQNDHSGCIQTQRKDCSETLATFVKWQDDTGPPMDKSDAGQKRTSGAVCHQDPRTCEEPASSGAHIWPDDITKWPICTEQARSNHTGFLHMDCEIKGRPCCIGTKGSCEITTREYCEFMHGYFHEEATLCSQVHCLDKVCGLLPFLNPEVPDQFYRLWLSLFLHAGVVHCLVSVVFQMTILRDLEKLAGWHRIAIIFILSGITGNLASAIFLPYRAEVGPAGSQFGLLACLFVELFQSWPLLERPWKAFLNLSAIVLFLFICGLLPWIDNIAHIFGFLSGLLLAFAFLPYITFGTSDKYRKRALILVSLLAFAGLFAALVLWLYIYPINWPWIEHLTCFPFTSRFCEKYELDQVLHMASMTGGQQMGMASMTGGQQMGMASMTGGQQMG

B1: antibody 16 (antibody, V domains shown)
VH: QVTLKESGPGILQPSQTLSLTCSFSGFSLSTFALGVGWIRQPSGRGLEWLAHIWWDDDKYYNPALKSRLTISKDTSKNHVFLKIANVDTADTATYYCARITTYYYGMDYWGQGTSVTVSS
VL: DIVLSQSPATLSVTPGDSVSLFCRASQSIGNHLHWYQQESHASPRLLIKYASQSISGIPSRFSGSGSGTDFTLSINSVETEDFGMYFCQQSYNWPLTFGAGTKLELK
notes: mouse IgG, kappa light chain; also called clone #16; purified antibody 16
B2: antibody 3 (antibody, V domains shown)
VH: QVTLKESGPGILQPSQTLSLTCSFSGFSLTTFAMGIGWVRQPSGKGLEWLAHIWWDGEKYNNPVLKSRLTISKDTSKNQVFLRIANVDTPDTATYYCARISSIYYIIDNWGQGTSVTVSS
VL: B1 VL with S5T, D17H, F22S, G30S, H32N, Q38K, E39K, A42E, A51V
notes: mouse IgG, kappa light chain; also called clone #3; purified antibody 3
B3: antibody 5 (antibody, V domains shown)
VH: QVTLKESGPGILQPSQTLSLTCSFSGFSLSTFGMGVGWIRQPSGKGLEWLAHIWWDDEKYYNSALKSRLTISKATSKNQAFLKIANVDTADTATYYCARISNYGSNYWYFNVWGTGTTVTVSS
VL: QVVLTQSPALMSASPGEKVTMTCSAGSSVSCMYWYQQKPGSSPRVLIYDTSNLASGVPARFTGSGSGTSYSLTISRMEAEDAASYYCQQWNSYPLTFGAGTKLELK
notes: mouse IgG, kappa light chain; also called clone #5; purified antibody 5
B4: antibody 44 (antibody, V domains shown)
VH: B3 VH with G44E, E58D, S63P, A74D, A80I, A85T, D91E, A98S, S101G, N111D
VL: QIVLTQSPAVMSASPGEKVTMTCTASSSVYYMYWYQQTPGSSPRLLIYDTSNLASGVPVRFSGSGSGTSYSLTISRMEAEDAATYYCQQWNTYPLTFGAGTKLELK
notes: mouse IgG, kappa light chain; also called clone #44; purified antibody 44
B5: antibody 43 (antibody, V domains shown)
VH: B3 VH with T3A, P42S, H52N, E58D, S63P, A74D, T75A, S101G, N111D
VL: QIVLTQSPAIMSASPGERVTMTCSANSRISYMYWYQQKPGSSPRLLIYDTSNLASGVPVRFSGSGSGTSYSLTISRMEAEDAATYNCQQWSSYPLTFGAGTKLELK
notes: mouse IgG, kappa light chain; also called clone #43; purified antibody 43
B6: antibody 42 (antibody, V domains shown)
VH: B3 VH with F24L, M34R, S63P, A74D, A80V, K83R, S101Q, N111D
VL: B5 VL with Q1L, R18K, S24G, N26T, Y33F, L45V, M77V, A82V, N86Y, S91N
notes: mouse IgG, kappa light chain; also called clone #42; purified antibody 42
B7: antibody 22 (antibody, V domains shown)
VH: B3 VH with A80V
VL: B3 VL with C31Y, S84T
notes: mouse IgG, kappa light chain; also called clone #22; purified antibody 22
B8: antibody 48 (antibody, V domains shown)
VH: QVQLQQSGTELVRPGTSVKVSCKASGYAFTNYLIEWVKQRPGQGLEWIGVINPGSGFTKYNEKFKGKATLTADKSSSTVYMHLSSLTSEDSAVYFCARGLYRAMDYWGQGTSVTVSS
VL: DIQMTQSPASQSASLGESVTITCLASQTIATWLAWYQQKPGKSPQLLIYGATTLADGVPSRFSGGGSGTKFSFKISSLQAEDFVSYYCQQLYSTPYTFGGGTKLEIK
notes: mouse IgG, kappa light chain; also called clone #48; purified antibody 48
B9: antibody 50 (antibody, V domains shown)
VH: B8 VH with T9A, T16A, T30S, V79A, H82Q
VL: B8 VL with A30G, G50A, T52A, T53S, S85N, L91I
notes: mouse IgG, kappa light chain; also called clone #50; purified antibody 50
B10: antibody 34 (antibody, V domains shown)
VH: QVTLKESGPGILQPSQTLSLTCSFSGFSLSTFSLGVGWIRQSSGKGLEWLAHIWWDDEKYYNPALKSRLTISKDTSKNQVFLKIANVDAADTATYYCARAYYSKSYYALDYWGQGTSVTVSS
VL: DIQMTQSPSSLSASLGERVSLTCRASQEISGYLSWLQQKPDGTIKRLIYAASTLDSGVPKRFSGSRSGSDYSLAISSLESEDFADYYCLQYANFPFTFGSGTKLEIK
notes: mouse IgG, kappa light chain; also called clone #34; purified antibody 34

How the values were obtained:
[1] = molecular target: T1, hiR2-FL-D535-T7 (deletion of D535); test: FACS on MEF-DKO cells
hiR1-FL-WT-T7 = molecular target: T2, hiR1-FL-WT-T7; test: FACS, MEF-DKO cells, 3 µg/ml
hiR2-FL-L539A-T7 = molecular target: T3, hiR2-FL-L539A-T7; test: FACS on MEF-DKO cells

| Binder | binding result [1] | loss of binding vs wild type (hiR1-FL-WT-T7) [%] | binding result (hiR2-FL-L539A-T7) |
| --- | --- | --- | --- |
| B1 | no binding (tested: 3 µg/ml) | ≥ 95 | – |
| B2 | no binding (tested: 3 µg/ml) | ≥ 95 | – |
| B3 | no binding (tested: 3 µg/ml) | ≥ 95 | no binding (tested: 3 µg/ml) |
| B4 | no binding (tested: 3 µg/ml) | ≥ 95 | no binding (tested: 3 µg/ml) |
| B5 | no binding (tested: 3 µg/ml) | ≥ 95 | no binding (tested: 3 µg/ml) |
| B6 | no binding (tested: 3 µg/ml) | ≥ 95 | no binding (tested: 3 µg/ml) |
| B7 | no binding (tested: 3 µg/ml) | ≥ 95 | no binding (tested: 3 µg/ml) |
| B8 | – | ≥ 60 | – |
| B9 | – | ≥ 95 | – |
| B10 | no binding (tested: 3 µg/ml) | ≥ 95 | no binding (tested: 3 µg/ml) |
